Laboratory results reported in publication PMC2672303, “Dosage Effects of Cohesin Regulatory Factor PDS5 on Mammalian Development: Implications for Cohesinopathies”.

Target: T1, C-PDS5B-His wild type (C-terminal PDS5B, two AT-hooks) (Homo sapiens, UniProt Q9NTI5 1134-1446)
T1 sequence: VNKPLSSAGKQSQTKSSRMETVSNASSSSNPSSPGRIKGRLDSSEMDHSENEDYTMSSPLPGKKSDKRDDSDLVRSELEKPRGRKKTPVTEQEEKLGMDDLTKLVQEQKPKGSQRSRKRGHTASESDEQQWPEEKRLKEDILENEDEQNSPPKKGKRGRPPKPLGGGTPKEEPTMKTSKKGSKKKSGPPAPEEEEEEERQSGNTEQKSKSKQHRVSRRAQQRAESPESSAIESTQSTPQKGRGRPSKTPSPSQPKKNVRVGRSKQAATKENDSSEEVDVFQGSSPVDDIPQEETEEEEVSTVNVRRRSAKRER
Assay: EMSA; 5-40 ng protein; EMSA: 20 ng protein (5-40 ng in Fig. 7E) with 2.25 pmol 32P probe, 25 C, 5 min, 6% polyacrylamide gel; protein dialyzed in 50 mM Tris pH 7.5, 0.5 mM EDTA, 100 mM NaCl, 10% glycerol, 1 mM DTT; binding buffer as in cited work
Details: protein: recombinant; tags: N-terminal HA; C-terminal 6xHis; label: 32P; blunt

B1: T5-8-T5 probe (dsDNA)
DNA 1: GGACTCCAGGTCCAGGACCGCTTTTTGCGCGCGCTTTTTGCGGGAGGTCCAGCTGTCCACCTCC
DNA 2: GGAGGTGGACAGCTGGACCTCCCGCAAAAAGCGCGCGCAAAAAGCGGTCCTGGACCTGGAGTCC
binding result: binds
